# Results published in PMC2744670 (2009).
# T1: CCR1 (Homo sapiens, UniProt P32246)
# T1 chain: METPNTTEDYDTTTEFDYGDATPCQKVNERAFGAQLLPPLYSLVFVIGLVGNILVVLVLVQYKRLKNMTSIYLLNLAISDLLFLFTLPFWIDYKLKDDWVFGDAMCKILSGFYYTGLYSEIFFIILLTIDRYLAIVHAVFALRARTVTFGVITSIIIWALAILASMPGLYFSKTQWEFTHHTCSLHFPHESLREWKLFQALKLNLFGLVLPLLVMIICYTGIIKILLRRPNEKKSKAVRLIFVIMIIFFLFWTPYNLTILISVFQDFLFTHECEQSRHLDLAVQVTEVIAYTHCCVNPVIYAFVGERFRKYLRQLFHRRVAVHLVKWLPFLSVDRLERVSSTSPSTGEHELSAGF
# Target: T1, CCR1
# Test: competition binding with [125I]CCL3 on transfected COS-7 cells
binder,measurement,value
U83A (protein) FICSSPDAELFSEKSRMSSSVLLGCLLCCMDWSAAVPGKTEPFRKLFDAIMIKKLKSCSAAYPSDLDEGSMCDMADASPTSLELGLSKLDKES,IC50,0.4 nM
